To fix the notation:
B1: BTBD1 (parent)
chain: FVLGKGRGAAAAGGPQRIPAHRFV

This is an account of results in the supplement of paper PMC10567573.
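Also: lentivirally expressed fusions sorted by FACS into six bins by GFP to DsRed ratio, PSI derived from sequencing read proportions per bin multiplied by bin number.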

The variants in the series derive from B1. In words: protein stability index of a GFP-peptide fusion (GPS, HEK-293T) (PSI 1-6); higher = more stable. As to conditions: c terminus: a fixed tail appended.
Regarding FVLGKGRGAAAAPGPQRIPAHRFV [G13P], the protein stability index turned out to be 1.75.

For the variant FVLGKGRGAAAASGPQRIPAHRFV [G13S], the protein stability index worked out at 2.15.

With FVLGKGRGAAAAQGPQRIPAHRFV [G13Q], the protein stability index was 2. In the case of FVLGKGRGAAAAVGPQRIPAHRFV [G13V] it was 1.36; in that of FVLGKGRGAAAAFGPQRIPAHRFV [G13F], 1.3; in that of FVLGKGRGAAAAHGPQRIPAHRFV [G13H], 1.71. In the case of FVLGKGRGAAAADGPQRIPAHRFV [G13D] it was 2.24; in that of FVLGKGRGAAAAEGPQRIPAHRFV [G13E], 2.31. Under FVLGKGRGAAAALGPQRIPAHRFV [G13L] stands 2.14; under FVLGKGRGAAAAYGPQRIPAHRFV [G13Y], 1.57.

As to FVLGKGRGAAAARGPQRIPAHRFV [G13R], the protein stability index was determined as 1.41. Under FVLGKGRGAAAANGPQRIPAHRFV [G13N] stands 2.57. In the case of FVLGKGRGAAAAIGPQRIPAHRFV [G13I] it was 2.25. As to FVLGKGRGAAAAKGPQRIPAHRFV [G13K], the protein stability index is 1.16.

For FVLGKGRGAAAAMGPQRIPAHRFV [G13M], the protein stability index turned out to be 2.07.

For the variant FVLGYGRGAAAAGGPQRIPAHRFV [K5Y], the protein stability index was determined as 2.95. Under FVLGSGRGAAAAGGPQRIPAHRFV [K5S] stands 1.98; under FVLGTGRGAAAAGGPQRIPAHRFV [K5T], 2.85; under FVLGVGRGAAAAGGPQRIPAHRFV [K5V], 1.38. Turning to FVLGKGRGAAAAGGPQSIPAHRFV [R17S], the protein stability index amounted to 1.86. For FVLGKGRGAAAAGGPQQIPAHRFV [R17Q], the protein stability index worked out at 1.92. Under FVLGKGRGAAAAGGPQCIPAHRFV [R17C] stands 1.9; under FVLGKGRGAAAAGGPQYIPAHRFV [R17Y], 1.49; under FVLGKGRGAAAAGGPQDIPAHRFV [R17D], 2.54.

As for FVLGKGRGAAAAGGPQMIPAHRFV [R17M], the protein stability index worked out at 1.56. FVLGKGRGAAAAGGPQNIPAHRFV [R17N]: the protein stability index amounted to 1.64. In the case of FVLGKGRGAAAAGGPQLIPAHRFV [R17L] it was 2.01. In the case of FVLGKGRGAAAAGGPQVIPAHRFV [R17V] it was 2.52; in that of FVLGKGRGAAAAGGPQFIPAHRFV [R17F], 1.28; in that of FVLGKGRGAAAAGGPQWIPAHRFV [R17W], 1.41. Consider FVLGKGRGAAAAGGPQEIPAHRFV [R17E], for which the protein stability index came to 2.13. Under FVLGKGRGAAAAGGPQKIPAHRFV [R17K] stands 2.01. In the case of FVLGKGRGAAAAGGPQIIPAHRFV [R17I] it was 3.15; in that of FVLGKGRGAAAAGGPQHIPAHRFV [R17H], 1.86; in that of FVLGKGRGATAAGGPQRIPAHRFV [A10T], 1.91.

Regarding FVLGKGRGAIAAGGPQRIPAHRFV [A10I], the protein stability index was found to be 1.52. In the case of FVLGKGRGAMAAGGPQRIPAHRFV [A10M], the protein stability index was found to be 1.34. As to FVLGKGRGARAAGGPQRIPAHRFV [A10R], the protein stability index came to 1.91. As to FVLGKGRGACAAGGPQRIPAHRFV [A10C], the protein stability index worked out at 1.36. In the case of FVLGKGRGAWAAGGPQRIPAHRFV [A10W] it was 1.98.

With FVLGKGRGAVAAGGPQRIPAHRFV [A10V], the protein stability index came to 1.43. Under FVLGKGRGASAAGGPQRIPAHRFV [A10S] stands 2; under FVLGKGRGAYAAGGPQRIPAHRFV [A10Y], 1.79. Under FVLGKGRGAQAAGGPQRIPAHRFV [A10Q] stands 2.03.

In the case of FVLGKGRGAFAAGGPQRIPAHRFV [A10F], the protein stability index stood at 2.27. In the case of FVLGKGRGAEAAGGPQRIPAHRFV [A10E] it was 1.67; in that of FVLGKGRGAPAAGGPQRIPAHRFV [A10P], 1.95. Under FVLGKGRGADAAGGPQRIPAHRFV [A10D] stands 1.64. Under FVLGKGRGAKAAGGPQRIPAHRFV [A10K] stands 2.08. As for FVLGKGRGAHAAGGPQRIPAHRFV [A10H], the protein stability index was found to be 1.68. For the variant FVLGKGRGALAAGGPQRIPAHRFV [A10L], the protein stability index stood at 1.46. Under FVLGKGRGANAAGGPQRIPAHRFV [A10N] stands 1.96; under FVLGKGRGAAAAGGPQRDPAHRFV [I18D], 2.16. Under FVLGKGRGAAAAGGPQRCPAHRFV [I18C] stands 2.27; under FVLGKGRGAAAAGGPQRFPAHRFV [I18F], 1.93. For FVLGKGRGAATAGGPQRIPAHRFV [A11T], the protein stability index is 1.52. Under FVLGKGRGAAKAGGPQRIPAHRFV [A11K] stands 1.77; under FVLGKGRGAALAGGPQRIPAHRFV [A11L], 1.31; under FVLGKGRGAAPAGGPQRIPAHRFV [A11P], 1.5.

Take FVLGKGRGAAEAGGPQRIPAHRFV [A11E]: the protein stability index was 1.94. In the case of FVLGKGRGAADAGGPQRIPAHRFV [A11D] it was 1.14; in that of FVLGKGRGAAVAGGPQRIPAHRFV [A11V], 1.28. Under FVLGKGRGAACAGGPQRIPAHRFV [A11C] stands 2.71. For the variant FVLGKGRGAAFAGGPQRIPAHRFV [A11F], the protein stability index came out at 1.04. In the case of FVLGKGRGAANAGGPQRIPAHRFV [A11N] it was 1.71.

For FVLGKGRGAARAGGPQRIPAHRFV [A11R], the protein stability index turned out to be 1.41.

As for FVLGKGRGAAHAGGPQRIPAHRFV [A11H], the protein stability index turned out to be 1.96. Under FVLGKGRGAAYAGGPQRIPAHRFV [A11Y] stands 1.63; under FVLGKGRGAASAGGPQRIPAHRFV [A11S], 2.58; under FVLGKGRGAAWAGGPQRIPAHRFV [A11W], 2.84.

Take FVLGKGRGAAIAGGPQRIPAHRFV [A11I]: the protein stability index turned out to be 1.87.

Turning to FVLGKGRGAAMAGGPQRIPAHRFV [A11M], the protein stability index is 1.73. As to FVLGKGRNAAAAGGPQRIPAHRFV [G8N], the protein stability index came to 1.62. Under FVLGKGREAAAAGGPQRIPAHRFV [G8E] stands 2.01. In the case of FVLGKGRKAAAAGGPQRIPAHRFV [G8K] it was 2.02; in that of FVLGKGRVAAAAGGPQRIPAHRFV [G8V], 1.39; in that of FVLGKGRSAAAAGGPQRIPAHRFV [G8S], 1.2. In the case of FVLGKGRYAAAAGGPQRIPAHRFV [G8Y] it was 1.44; in that of FVLGKGRQAAAAGGPQRIPAHRFV [G8Q], 1.48. In the case of FVLGKGRRAAAAGGPQRIPAHRFV [G8R], the protein stability index came to 1.78.

Regarding FVLGKGRAAAAAGGPQRIPAHRFV [G8A], the protein stability index came to 1.33.

With FVLGKGRLAAAAGGPQRIPAHRFV [G8L], the protein stability index came to 1.69.

For FVLGKGRTAAAAGGPQRIPAHRFV [G8T], the protein stability index worked out at 2. Under FVLGKGRFAAAAGGPQRIPAHRFV [G8F] stands 1.5; under FVLGKGRDAAAAGGPQRIPAHRFV [G8D], 2.13; under FVLGKGRHAAAAGGPQRIPAHRFV [G8H], 2.31. In the case of FVLGKGRPAAAAGGPQRIPAHRFV [G8P] it was 1.55. As for FVLGKGRIAAAAGGPQRIPAHRFV [G8I], the protein stability index stood at 2.26. With FVLGKGRGAAAEGGPQRIPAHRFV [A12E], the protein stability index was 1.84. Consider FVLGKGRGAAAYGGPQRIPAHRFV [A12Y], for which the protein stability index was 1.16. Under FVLGKGRGAAAQGGPQRIPAHRFV [A12Q] stands 1.43; under FVLGKGRGAAAMGGPQRIPAHRFV [A12M], 1.52. Under FVLGKGRGAAALGGPQRIPAHRFV [A12L] stands 1.38. In the case of FVLGKGRGAAANGGPQRIPAHRFV [A12N] it was 1.78.
